B1: luminal domain of human calnexin (residues 21-481) (domain or fragment, UniProt P27824 21-481, looked up)
chain: HDGHDDDVIDIEDDLDDVIEEVEDSKPDTTAPPSSPKVTYKAPVPTGEVYFADSFDRGTLSGWILSKAKKDDTDDEIAKYDGKWEVEEMKESKLPGDKGLVLMSRAKHHAISAKLNKPFLFDTKPLIVQYEVNFQNGIECGGAYVKLLSKTPELNLDQFHDKTPYTIMFGPDKCGEDYKLHFIFRHKNPKTGIYEEKHAKRPDADLKTYFTDKKTHLYTLILNPDNSFEILVDQSVVNSGNLLNDMTPPVNPSREIEDPEDRKPEDWDERPKIPDPEAVKPDDWDEDAPAKIPDEEATKPEGWLDDEPEYVPDPDAEKPEDWDEDMDGEWEAPQIANPRCESAPGCGVWQRPVIDNPNYKGKWKPPMIDNPSYQGIWKPRKIPNPDFFEDLEPFRMTPFSAIGLELWSMTSDIFFDNFIICADRRIVDDWANDGWGLKKAADGAAEPGVVGQMIEAAEERP
notes: calnexin (CNX), human, luminal domain, residues 21-481; pET15b construct; the N-terminal His tag was removed from the plasmid and a His tag added at the C-terminus; also called CNX; ER-luminal domain of CNX
B2: human ERp57 (residues 25-505) (enzyme, UniProt P30101 25-505, looked up)
chain: SDVLELTDDNFESRISDTGSAGLMLVEFFAPWCGHCKRLAPEYEAAATRLKGIVPLAKVDCTANTNTCNKYGVSGYPTLKIFRDGEEAGAYDGPRTADGIVSHLKKQAGPASVPLRTEEEFKKFISDKDASIVGFFDDSFSEAHSEFLKAASNLRDNYRFAHTNVESLVNEYDDNGEGIILFRPSHLTNKFEDKTVAYTEQKMTSGKIKKFIQENIFGICPHMTEDNKDLIQGKDLLIAYYDVDYEKNAKGSNYWRNRVMMVAKKFLDAGHKLNFAVASRKTFSHELSDFGLESTAGEIPVVAIRTAKGEKFVMQEEFSRDGKALERFLQDYFDGNLKRYLKSEPIPESNDGPVKVVVAENFDEIVNNENKDVLIEFYAPWCGHCKNLEPKYKELGEKLSKDPNIVIAKMDATANDVPSPYEVRGFPTIYFSPANKKLNPKKYEGGRELSDFISYLQREATNPPVIQEEKPKKKKKAQEDL
notes: ERp57 (protein disulfide isomerase family member), human, residues 25-505; Cloned into the NdeI and BamHI sites of pET15b; also called wild-type ERp57

Columns and labels:
Conditions in all cases: both partners purified
[1] = biological target: B2; test: ITC; ERp57 (370 μM) in the syringe titrated into CNX (25 μM) in the cell; 20 mM HEPES pH 7.2, 100 mM NaCl, with 1 mM CaCl2, 15 °C; one-set-of-sites model
[2] = biological target: B2; test: ITC; ERp57 (370 μM) in the syringe titrated into CNX (25 μM) in the cell; 20 mM HEPES pH 7.2, 100 mM NaCl, without Ca2+, 15 °C; one-set-of-sites model
[3] = biological target: B1; test: ITC; ERp57 (370 μM) in the syringe titrated into CNX (25 μM) in the cell; 20 mM HEPES pH 7.2, 100 mM NaCl, with 1 mM CaCl2, 15 °C; one-set-of-sites model
[4] = biological target: B1; test: ITC; ERp57 (370 μM) in the syringe titrated into CNX (25 μM) in the cell; 20 mM HEPES pH 7.2, 100 mM NaCl, without Ca2+, 15 °C; one-set-of-sites model

Kd [1] [nM] | Kd [2] [nM] | dH [3] [kcal/mol] | dH [4] [kcal/mol] | Binder
1520 | 880 | – | – | B1
– | – | -3.81 | -3.31 | B2

Source: publication PMC8151781, “Ca^2+ Regulates ERp57-Calnexin Complex Formation” (Molecules, 2021)
